Values joined by “and” are separate entries in the source; they are usually repeats but may differ in a detail not shown here. Identical values can stand only once.
Key:
[1] = biological target: adaptor protein gp45 of siphophage T1 (phage T1 (ATCC 11303-B1)); test: cryo-EM structure; head-connector complex of purified mature T1 virions; asymmetric reconstruction 8 Å; local reconstruction of the portal-adaptor complex 3.6 Å (twelvefold symmetry) and of the stopper-terminator-tube complex 3.6 Å (sixfold symmetry)
[2] = biological target: cement protein (CP) gp49 of siphophage T1 (phage T1 (ATCC 11303-B1)); test: cryo-EM structure; icosahedral head of purified mature T1 virions (assembled in infected E. coli) in phage buffer (50 mM NaCl, 10 mM MgCl2, 10 mM Tris-HCl, pH 7.6); icosahedral reconstruction 4 Å, local reconstruction of the fivefold region 3.5 Å
[3] = biological target: cement protein (CP) gp48 of siphophage T1 (phage T1 (ATCC 11303-B1)); test: as above
[4] = biological target: central fiber protein gp33 of siphophage T1 (phage T1 (ATCC 11303-B1)); test: cryo-EM structure; tail tip of purified mature T1 virions (laboratory-adapted, no lateral fibers); 6.1 Å, after local refinement 4.3 Å, threefold symmetry imposed
[5] = biological target: distal tail protein gp37 of siphophage T1 (phage T1 (ATCC 11303-B1)); test: as above
[6] = biological target: insertion protein gp34 of siphophage T1 (phage T1 (ATCC 11303-B1)); test: as above
[7] = biological target: major capsid protein (MCP) gp47 of siphophage T1 (phage T1 (ATCC 11303-B1)); test: cryo-EM structure; icosahedral head of purified mature T1 virions (assembled in infected E. coli) in phage buffer (50 mM NaCl, 10 mM MgCl2, 10 mM Tris-HCl, pH 7.6); icosahedral reconstruction 4 Å, local reconstruction of the fivefold region 3.5 Å
[8] = biological target: portal protein gp52 of siphophage T1 (phage T1 (ATCC 11303-B1)); test: cryo-EM structure; head-connector complex of purified mature T1 virions; asymmetric reconstruction 8 Å; local reconstruction of the portal-adaptor complex 3.6 Å (twelvefold symmetry) and of the stopper-terminator-tube complex 3.6 Å (sixfold symmetry)
[9] = biological target: stopper protein gp44 of siphophage T1 (phage T1 (ATCC 11303-B1)); test: as above
[10] = biological target: tail terminator protein gp42 of siphophage T1 (phage T1 (ATCC 11303-B1)); test: as above
[11] = biological target: tail tube protein (TTP) gp41 of siphophage T1 (phage T1 (ATCC 11303-B1)); test: cryo-EM structure; tail tube of purified mature T1 virions; 4.1 Å, sixfold symmetry imposed

## adaptor protein gp45 of siphophage T1 (natural protein)
[1]
  stoichiometry N: 12

## cement protein (CP) gp49 of siphophage T1 (natural protein)
[2]
  stoichiometry N: 3
[3]
  stoichiometry N (gp49 per gp48): 2

## central fiber protein gp33 of siphophage T1 (natural protein)
[4]
  stoichiometry N: 3

## distal tail protein gp37 of siphophage T1 (natural protein)
[5]
  stoichiometry N: 6

## insertion protein gp34 of siphophage T1 (natural protein)
[6]
  stoichiometry N: 3

## major capsid protein (MCP) gp47 of siphophage T1 (natural protein)
[7]
  stoichiometry N: 5 and 6
  stoichiometry N (copies in the head): 415

## portal protein gp52 of siphophage T1 (natural protein)
[8]
  stoichiometry N: 12

## stopper protein gp44 of siphophage T1 (natural protein)
[9]
  stoichiometry N: 6

## tail terminator protein gp42 of siphophage T1 (natural protein)
[10]
  stoichiometry N: 6

## tail tube protein (TTP) gp41 of siphophage T1 (natural protein)
[11]
  stoichiometry N: 6

— publication PMC11945409
